This note sets out measurements from paper PMC3074137.

Data set [1] has as its target eIF4G-MC (83.5 kDa fragment of human eIF4GI, residues 712-1451) (human) (UniProt Q04637). Briefly: SAXS.
The next data set deals with His6-eIF4G-MC (human) (UniProt Q04637). Briefly: SPR.
Data set [2] deals with eIF4G-MC (83.5 kDa fragment of human eIF4GI, residues 712-1451) (human) (UniProt Q04637). Briefly: SEC.
The target in a further data set is eIF4G-MC (F978A) (human) (UniProt Q04637). Briefly: ITC. For orientation: In ITC the heat of successive injections is recorded.
Sequence of eIF4G-MC (F978A) (human) (Q04637 711-1450 F977A): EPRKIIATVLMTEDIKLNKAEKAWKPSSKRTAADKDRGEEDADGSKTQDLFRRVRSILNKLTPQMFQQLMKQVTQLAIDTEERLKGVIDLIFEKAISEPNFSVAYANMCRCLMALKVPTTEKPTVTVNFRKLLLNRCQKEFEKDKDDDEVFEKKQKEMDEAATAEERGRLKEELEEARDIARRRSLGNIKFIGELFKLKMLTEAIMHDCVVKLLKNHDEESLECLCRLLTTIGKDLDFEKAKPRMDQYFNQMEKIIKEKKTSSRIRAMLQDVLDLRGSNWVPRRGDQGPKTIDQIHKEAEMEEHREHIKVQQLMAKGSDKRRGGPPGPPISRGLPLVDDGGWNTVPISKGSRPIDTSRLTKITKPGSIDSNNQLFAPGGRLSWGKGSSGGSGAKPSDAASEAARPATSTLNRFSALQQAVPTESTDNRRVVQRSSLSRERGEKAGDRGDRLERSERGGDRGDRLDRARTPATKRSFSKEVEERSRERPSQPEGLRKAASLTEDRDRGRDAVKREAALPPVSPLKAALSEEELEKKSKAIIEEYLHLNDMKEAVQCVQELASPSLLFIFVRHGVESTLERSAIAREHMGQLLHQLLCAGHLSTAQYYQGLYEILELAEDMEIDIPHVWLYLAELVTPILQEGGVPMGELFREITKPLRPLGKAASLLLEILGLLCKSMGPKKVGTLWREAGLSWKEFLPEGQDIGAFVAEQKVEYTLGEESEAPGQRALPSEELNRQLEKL
The target in data set [3] is eIF4G-MC (83.5 kDa fragment of human eIF4GI, residues 712-1451) (human) (UniProt Q04637). Briefly: ITC.
In another data set the target is eIF4A (human) (UniProt P60842). Briefly: ITC.
The target in a further data set is eIF4A;eIF4BΔC (human;human, UniProt P60842;P23588 1-406;1-431, |). Briefly: pull-down.
A further data set deals with eIF4A;eIF4B (human;human, UniProt P60842;P23588 1-406;1-611, |). Briefly: pull-down.
The next data set has as its target eIF4B (human, UniProt P23588 1-611). Briefly: pull-down.

Sequence of eIF4G-MC (83.5 kDa fragment of human eIF4GI, residues 712-1451) (human) (Q04637 711-1450): as the sequence (Q04637 711-1450 F977A) above, with A267F counted along it
Sequence of eIF4G-MC (83.5 kDa fragment of human eIF4GI, residues 712-1451) (Q04637 711-1450): as the sequence (Q04637 711-1450 F977A) above, with A267F counted along it
Sequence of His6-eIF4G-MC (human) (Q04637 711-1450): as the sequence (Q04637 711-1450 F977A) above, with A267F counted along it
Sequence of eIF4B (P23588 whole entry): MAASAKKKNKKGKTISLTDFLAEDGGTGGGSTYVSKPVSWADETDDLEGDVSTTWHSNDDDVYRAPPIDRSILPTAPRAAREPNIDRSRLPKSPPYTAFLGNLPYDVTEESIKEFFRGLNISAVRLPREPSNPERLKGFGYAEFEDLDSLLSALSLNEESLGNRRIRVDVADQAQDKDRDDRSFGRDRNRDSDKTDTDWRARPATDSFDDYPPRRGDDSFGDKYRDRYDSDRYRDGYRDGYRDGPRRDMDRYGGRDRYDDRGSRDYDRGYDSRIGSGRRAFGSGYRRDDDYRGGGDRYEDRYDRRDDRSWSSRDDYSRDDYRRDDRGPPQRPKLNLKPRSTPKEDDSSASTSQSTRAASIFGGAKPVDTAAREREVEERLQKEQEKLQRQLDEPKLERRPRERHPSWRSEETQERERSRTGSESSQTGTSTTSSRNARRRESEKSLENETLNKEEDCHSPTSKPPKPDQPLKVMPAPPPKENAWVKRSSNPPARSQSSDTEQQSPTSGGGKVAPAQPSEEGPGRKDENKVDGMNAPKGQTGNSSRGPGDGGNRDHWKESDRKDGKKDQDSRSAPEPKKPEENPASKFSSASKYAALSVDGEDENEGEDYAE

Usually Kd stands for the equilibrium constant for the complex coming apart. A high value points to a looser complex. “eIF4A (from UniProt P60842 1-406) (enzyme)”: the stoichiometry N (eIF4A per eIF4G-MC) in data set [1] and in data set [2] was 1 in each case. Further, the figures for the KD high-affinity site (with His6-eIF4G-MC (human); in [3]) were 0.067 µM and 0.05 µM, respectively. In the data set with eIF4G-MC (F978A) (human), the Kd was determined as 0.417 µM. This molecule showed a stoichiometry N (eIF4A per eIF4G-MC (F978A)) with eIF4G-MC (F978A) (human) of 1. The KD low-affinity site in data set [3] came to 0.775 µM.

Turning to “eIF4G-MC (83.5 kDa fragment of human eIF4GI, residues 712-1451) (from UniProt Q04637-8 712-1451) (domain or fragment)”, in the data set with eIF4A (human), the KD high-affinity site came to 0.042 µM and the KD low-affinity site was found to be 1.6 µM.

Take UUUUUUUUUUUUUUUUUUUUUUUUUUUUUU (ssRNA) [pU30-biotin]: the binding result with eIF4A;eIF4BΔC, with eIF4A;eIF4B and with eIF4B was “binds” each time.
